Measurements as given in the DeepSol protein solubility set.

assay: soluble on expression in E. coli; label from the status in PepcDB or PDB records

Soluble on expression in E. coli, not soluble:
MGSDKIHHHHHHAQTDPSQLKKEGSDAFNAKNYPVAYAKFSEYLKQTNNQDSAIAYYCGMAADEVKKYAEAVTFFDIAIQKKFNIGNAYARKALALDAMKKTDEYVATLEEGLKVDPDNKTMIKNYGLHYLKAGIAAQKAGKVEEAEECFKKVIPLDHKTYKTNALYSLGVLCYNDGANILKKAAPLANSDADKYAAEKEKADGRFKEAIGYLEEATKVSPEDTKSKTMLSQVQAAMK
MGSDKIHHHHHHAQVKTYKYRVNFRDKAETTYALDKPSAYLSERALERRMKQGLPVDSTDIPVCRSYIDMLVGKGAQLVSKSKWNNTVVVQVSDTSVIDKVAALPFVTAVRKVWTAPDSIPARNANRKKEVTNRVTKSNNYYGDAWRQIAVHHGDSLHAAGFRGKGMQIAVIDAGFYNADEISVFKGMDLLGTRDFVNSHSDIYAENYHGMKVLSCMAANKPNVLVGTAPEASYWLLRSEDDDTEQPVEEDYWAEALEFADSVGVDVVNTSLGYYEFDDTTMNYRYRDLDGHYSLMSHSASLAADKGLVLVCSAGNSGRGTWKKITPPGDAENVITVGAADRNLVNADFSSVGNTTDGRVKPDVMAVGVASAVAGNDGTVSHANGTSFASPTLCGLVACFWQACPWLTAKQVVEAVRNAGDRKEYPDNIYGYGVPDIWKACQIELEKKK
MGSDKIHHHHHHAREAEFKKIKESWTLQADGTQVYRQSKVLTLYTHTAMNRTYGESFITYDPRYQTLQIHESYTRQKDGNIVKTPANALVEVLPSAAANAPAFNALREMVVVHTGLELGATIYLDYSITTKPGYLPGIQICRLLEHSSPVKEYEISITVPRGQHLEYALNNHKEKASVTESEGMKQVSWTLKNLPALSREPQVSVIGGDLPLLTATTEEKPLSFLTSQWQPEGDAGIRALAGKLTAGAKDDKEKVTAIRDYVIDNLYYSSLPLAESGYRIRPAAEVIRSAYGTEAEKANLMAALLKAAGLKAGIGAVCAPSENTASLGVGSIRELFVWTDAGGSQQALSLKGKTPSAVSWQKDYAYVASLTQPFELNLPPVTLRKDYALQPDAANAKDGYLVFTLPVERGSLAGSQYVRFNSKRTSNLLLPGLADESFTYTVDTPAGMEPVTRPMEKKMDNAVGTLTISIRPEGAKTRVIRSLKLKKQMIRPADYAAFRQLMTEYGAVDGLTLVYRKPLP
MGSDKIHHHHHHASCEKDPDMGKLDDNYLVYTNYDKQANFKDFSTFYLADKILVISDSKEPEYLEGEGAEQILAAYTENMEAKGYQPAADKESADLGIQVSYIASTYYFTGYTQPEWWWGYPGYWGPSYWGNWGGWYYPYAVTYSYSTNSFITEMVNLKADEGEGKKLPVVWTSYLTGFETGSKAINRTLAIEAVNQSFTQSPYLTNK
MGSDKIHHHHHHATTLLVSCSNQQTQTKAITVSDTTLLSAEEFSQKIKKEPNALILDVRTPEEFSEAHIANATNVNWKDNFASGITEVNKNQPVLVYCLSGGRSASASDYLRKNGYTQVYELQGGLLKWQASNFEVVADTVTAAQDSGMTLQQFEALLVTDKYVLIDFYATWCGPCKMMEPALEDIAATMSDKVIVVRIDVDKNEELSKHFEVESLPTVQIYKNKKLVWEDIGYKTKKQLVSQLK
MGSDKIHHHHHHCDETELDQTVTNQVNPQKEEDSRIVFNSAKEFYNTLDTLSYMTYEEQTEWIRASGIKYPLYKDLEFCEDEIMTEMPRAFQALFNHKMEMQINDTVIAFEKGNMYVKSIKEKILPVPVLYGQVGVNQEESEVTTRTVYETKYGKIGTSYQYEFKIPEGKSKYKYVHELKSVIIKENLPPYKSWSNLFLVLKLEWKGKKKWKVAEKEERNISIDLNVCKRNLAKVKYNQEIRIDVQNMDSKSHSINIEGYIIHEVVGIPSTKMFNGWSYPLVEWQPR
MGSDKIHHHHHHDANGVKIGVITDMSGSYADLSGKGSVLAAQMAVEEFGGKALGKPVTVLSADHQNKADIASSLARRWFDTDGVDMVIDFPNSSTALAVQEVAKQKQKIDIVSTGGAMALTNQNCSPTGFHWAWDTYSVSYPLVKRMIDQGRNSWYYITVDYAFGQSLEADFRKAVDVSGGKNVGSTKHPLNASDFSSPVVAASASKANVVVLANAGNDMINGVKAAGEFGLVKAGQTVITPSTFITDIKSLGLNTAQGLTYVDPFRLDLDEKSKDFVERYYKRHKAYPTHGQIGVYSGVLHYLKAVEAAKTVDGPAVADKMRALPVNDAFVHNGKVRADGRMVHDMYLAQAKTPAESKGPWDLVKYIATIPGDEAFRPLSASECALVKK
MGSDKIHHHHHHDETVYDKLPADDFGQSTAELNALIGNSHNTMKKFWTEYMHLSECSGSMAVTPTRRGGDWYDGGQYREIYMHTWTSQTSRVKSAWKAATEAIGTCNEAIRKLQNSEILTEEEKAQDVADLRGVRAFWIYVMMDYWGNIPLLTEFHPTDKVFPGNSSRQEVFDWLIQEVEEIKDICPPATTENYGSFTQGAAYSLLAKLYLNAEAWGVTFSGNAYQKVIDNCDKVMAMGYILEPNWKDNFSVTNENSKEAILAATFSSSDTGNDGNVKNELHNNTLHYKDYLSLGITASGTWNGICAQPEYVRLFDEEDARLDGTFLTGLMIDKSTGKPIMTDHNNELNHTIDVNMIPGMEYDGTNWSAVEQHDGARCFKWEFASDLTSSMGNDFHIFRLADIYLMKAEALLRGGGSVSEATALVNTIRERGYGNSDHNYATVTLKEVQLERRLELAWEVYSRQDDIRFGCFTTGMWPQSNCERKADDYLKLLPVSQDAWQVNPNLKQNPGYAAFSK
MGSDKIHHHHHHEEEEQKPAYGKIDVAVSVTLPQPESVNTLTRAGGPYTDTDIKNADLLIFDKDAKFMERVKVENDRLVITGTGINFTVRLDATSERRIIHLVANGRSADGTSDRLNFGDITPGMTENAAISSLQTASLEHVDEGESTLLNHVMPLVMWGRFALNGINIVTKAEGVKLLRSTACIQVKKGNGGGNTGLDDFVIEGITVHQGACHGFLAPTDCTGEVNTPVVTNPVTGGIYLDYRKGWVNGAEPSLYIYERNCSASDYMGVVIAARYKGKKGYYKVVMNGNDGSPLNIVRNHRYIVTVVGVNGPGYESPDIAVASAPSNALKVELTDEDTDLPCIVADGQYRMASSNNVFSLYGKTGVTTSATGVDICTVYSSRGIQPVLTLPDDCNWLTNLSAQALGSNKYKITGDFTSAANDAVATTLTMTCDNLSQPVRVSWNPIISDQKDTDSFVLDLVGSTDRNWTVRVLNPTSPGWLFLHPSAASPGALPGDGMVSELSSKYSSHAYLHVAFGASRRGTVQMTSASSGETVARKIVVIQ
MGSDKIHHHHHHEIRENLLGNYSDRVLVVSHRADWRNAPENSLQGIRNCIDMGVDMVEIDLKKTKDGHLVIMHDKTINRTMTGKGNAEDYTLAELKAMRLKNGAGCKTRHQIPTLEEVMLLCKGKIMVNIDKGYDYFQEAYAVLEKTGTIDHCVIKAGLPYERVKAENGDVLDKVIFMPIVNLHKEGAEKIINDYQSHMKPTAYELVFNDDNEEILRLIRKVRDSGAKLFINSLWPELCGGHDDDRAVELHQPDESWGWILNQGAKLIQTDRPALLLEYLRKKKLHD
MGSDKIHHHHHHLAQLYFYYSSMNAGKSTSLLQSSYNYRERGMNTLVMTASIDDRYGKGKVASRIGIETEAQVFSSQDDLTQMISDVHQATPLSCVLVDECQFLSKEQVKQLTHVVDNIDIPVLCYGLRTDFQGELFSGSHYLLAWADKLVELKTICHCGRKANMVVRLDGDGKVMREGEQVAIGGNESYESVCRKHFREFIWD
MGSDKIHHHHHHLDDYDDDIYDMQAGMPFNAALATVVTPSEIPGEAMIESDNDGVAYVVNPDKLTRFETNNPGQRIFYTYINADNPTGDASKKGPFISIDYLQKILTKRMDTLKENEEDIYGHDGINLITPIMGKTHLTLMFQILGFNSNIKHRISLVATEGTVPDANGYMAVELRHNAEGDRQEYPSSGYVSFPLLDVPGYKEGKLQGFKIKMNTINNGEETVTVSYNKSKSTNFPFIQKGISNTKIK
MGSDKIHHHHHHLGPPTPLGLRAAPHNVTNLAQTPLAERLRSLVDTVQHNERTLRRFQSVELRLIGAQDFASFLDTLFGQLPREFSLAGVTLWLDDRAPMLRELLEPVALRALDQPRLRTSREGGLAAQGLCEDGRPWLGTPRELDDTVRRAFFGDAEQVPASAILLPLASGDTVGGYLWLGSDDAARFAQGMATDILERFASIVTASLDNVAHRERLKQLGMTDSLTGLANRRYFDERLREEVMRAVRYRMPVACLFIDIDSFKRINDTYGHQTGDRALAAVAACVRQQVRLGDTVARYGGEEFAALLQGDRADALTVAERVRLAVERLALQDDHGERIALTVSIGVAARMVSGTPTEAAMLGGAIIEEADRAMYQAKRNGRNRIEALVNASGDHTAG
